Assay results published in publication PMC1636435 (Nucleic Acids Research, 2006).
One block for each molecule: values may come before it.

B1: human RAD51 (Gal4 two-hybrid fusion) (natural protein)
chain: MAMQMQLEANADTSVEEESFGPQPISRLEQCGINANDVKKLEEAGFHTVEAVAYAPKKELINIKGISEAKADKILAEAAKLVPMGFTTATEFHQRRSEIIQITTGSKELDKLLQGGIETGSITEMFGEFRTGKTQICHTLAVTCQLPIDRGGGEGKAMYIDTEGTFRPERLLAVAERYGLSGSDVLDNVAYARAFNTDHQTQLLYQASAMMVESRYALLIVDSATALYRTDYSGRGELSARQMHLARFLRMLLRLADEFGVAVVITNQVVAQVDGAAMFAADPKKPIGGNIIAHASTTRLYLRKGRGETRICKIYDSPCLPEAEAMFAINADGVGDAKD
B2: RAD51AP1-C89 (C-terminal 89 amino acids of human RAD51AP1) (domain or fragment)
chain: APAAVKSESQSLPKKVSLSSDTTRKPLEIRSPSAESKKPKWVPPAASGGSRSSSSPLVVVSVKSPNQSLRLGLSRLARVKPLHPNATST
B3: human RAD51AP1 (Gal4 two-hybrid fusion, all of RAD51AP1) (natural protein)
chain: MVRPVRHKKPVNYSQFDHSDSDDDFVSATVPLNKKSRTAPKELKQDKPKPNLNNLRKEEIPVQEKTPKKRMALDDKLYQRDLEVALALSVKELPTVTTNVQNSQDKSIEKHGSSKIETMNKSPHISNCSVASDYLDLDKITVEDDVGGVQGKRKAASKAAAQQRKILLEGSDGDSANDTEPDFAPGEDSEDDSDFCESEDNDEDFSMRKSKVKEIKKKEVKVKSPVEKKEKKSKSKCNALVTSVDSAPAAVKSESQSLPKKVSLSSDTTRKPLEIRSPSAESKKPKWVPPAASGGSRSSSSPLVVVSVKSPNQSLRLGLSRLARVKPLHPNATST

How the values were obtained:
Assay in all cases: two-hybrid
[1] = target: human RAD51AP1 (Gal4 two-hybrid fusion, all of RAD51AP1) (human) (UniProt Q96B01)
[2] = target: human RAD51 (Gal4 two-hybrid fusion) (human) (UniProt Q06609)
[3] = target: Saccharomyces cerevisiae RAD51 (Gal4 two-hybrid fusion) (Saccharomyces cerevisiae) (UniProt P25454)
[4] = target: human DMC1 (Gal4 two-hybrid fusion) (human) (UniProt Q14565)
[5] = target: Two larger fragments, each containing RAD54 79-118
[6] = target: RAD51AP2-C33 (C-terminal 33 amino acids of human RAD51AP2) (human) (UniProt Q09MP3)
[7] = target: RAD51AP2-C92 (last 92 amino acids of human RAD51AP2) (human) (UniProt Q09MP3)
[8] = target: T1, RAD51AP1-C25 (C-terminal 25 residues of human RAD51AP1) (human, UniProt Q96B01-2 311-335)
T1 chain: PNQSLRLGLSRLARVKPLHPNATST

[9] = target: B2
[10] = target: B3
[11] = target: B1

Sequence of RAD51AP2-C33 (C-terminal 33 amino acids of human RAD51AP2) (human) (Q09MP3 whole entry): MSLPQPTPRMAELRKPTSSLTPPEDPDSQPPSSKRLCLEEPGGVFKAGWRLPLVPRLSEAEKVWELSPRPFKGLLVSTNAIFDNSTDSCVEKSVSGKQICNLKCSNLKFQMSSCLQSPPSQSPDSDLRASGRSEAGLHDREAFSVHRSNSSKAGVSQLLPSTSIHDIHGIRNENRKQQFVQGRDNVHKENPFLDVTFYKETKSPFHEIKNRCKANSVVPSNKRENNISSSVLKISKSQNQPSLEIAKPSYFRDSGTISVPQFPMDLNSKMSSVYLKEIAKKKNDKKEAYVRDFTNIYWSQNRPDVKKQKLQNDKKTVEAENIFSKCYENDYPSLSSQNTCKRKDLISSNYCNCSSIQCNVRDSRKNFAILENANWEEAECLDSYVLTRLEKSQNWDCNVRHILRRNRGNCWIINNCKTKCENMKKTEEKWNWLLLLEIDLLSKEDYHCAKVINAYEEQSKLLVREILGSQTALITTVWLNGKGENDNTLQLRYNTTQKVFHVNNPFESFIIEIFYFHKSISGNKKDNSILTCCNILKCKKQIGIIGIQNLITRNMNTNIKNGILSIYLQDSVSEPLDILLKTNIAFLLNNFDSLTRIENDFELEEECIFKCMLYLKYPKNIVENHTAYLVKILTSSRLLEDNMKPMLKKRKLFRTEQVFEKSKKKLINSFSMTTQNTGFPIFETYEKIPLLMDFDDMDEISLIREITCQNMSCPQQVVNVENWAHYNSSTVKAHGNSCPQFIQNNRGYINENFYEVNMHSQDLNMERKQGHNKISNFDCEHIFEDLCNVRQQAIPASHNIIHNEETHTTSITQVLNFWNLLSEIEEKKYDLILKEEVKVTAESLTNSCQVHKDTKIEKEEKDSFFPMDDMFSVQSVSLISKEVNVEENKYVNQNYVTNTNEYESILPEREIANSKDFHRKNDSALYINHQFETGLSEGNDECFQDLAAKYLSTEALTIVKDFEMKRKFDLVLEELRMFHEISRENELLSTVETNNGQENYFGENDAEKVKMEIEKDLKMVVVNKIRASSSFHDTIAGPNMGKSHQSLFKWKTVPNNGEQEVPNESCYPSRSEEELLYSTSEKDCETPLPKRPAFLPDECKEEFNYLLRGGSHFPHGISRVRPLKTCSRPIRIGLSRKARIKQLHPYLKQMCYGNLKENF
Sequence of Saccharomyces cerevisiae RAD51 (Gal4 two-hybrid fusion) (Saccharomyces cerevisiae) (P25454 whole entry, the tested form may be a part): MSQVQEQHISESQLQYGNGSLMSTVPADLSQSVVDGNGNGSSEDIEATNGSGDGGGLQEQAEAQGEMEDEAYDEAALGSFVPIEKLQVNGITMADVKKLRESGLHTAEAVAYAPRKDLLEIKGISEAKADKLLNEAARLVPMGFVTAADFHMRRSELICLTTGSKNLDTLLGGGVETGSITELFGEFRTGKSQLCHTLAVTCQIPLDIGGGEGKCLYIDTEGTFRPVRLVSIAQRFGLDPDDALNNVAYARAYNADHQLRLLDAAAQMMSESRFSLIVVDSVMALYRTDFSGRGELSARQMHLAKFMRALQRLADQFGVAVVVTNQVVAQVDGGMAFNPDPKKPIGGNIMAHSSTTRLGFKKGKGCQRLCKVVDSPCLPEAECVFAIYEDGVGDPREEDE
Sequence of human DMC1 (Gal4 two-hybrid fusion) (human) (Q14565 whole entry, the tested form may be a part): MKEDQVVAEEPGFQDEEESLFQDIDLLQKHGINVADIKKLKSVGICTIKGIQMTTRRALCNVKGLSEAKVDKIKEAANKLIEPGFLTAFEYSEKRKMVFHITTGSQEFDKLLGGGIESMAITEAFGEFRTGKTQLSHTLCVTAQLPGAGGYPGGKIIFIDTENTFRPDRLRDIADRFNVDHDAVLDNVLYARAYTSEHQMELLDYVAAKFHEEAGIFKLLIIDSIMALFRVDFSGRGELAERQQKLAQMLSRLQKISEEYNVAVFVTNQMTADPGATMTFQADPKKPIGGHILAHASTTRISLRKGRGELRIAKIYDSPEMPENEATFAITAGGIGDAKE
Sequence of RAD51AP2-C92 (last 92 amino acids of human RAD51AP2) (human) (Q09MP3 1068-1159): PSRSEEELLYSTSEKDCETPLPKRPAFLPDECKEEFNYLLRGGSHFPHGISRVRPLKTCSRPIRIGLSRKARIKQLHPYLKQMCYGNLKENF

Molecule: B1
units of β-galactosidase [8]: 473 units of β-galactosidase
units of β-galactosidase [9]: 420 units of β-galactosidase
units of β-galactosidase [10]: 590 units of β-galactosidase

Molecule: B2
units of β-galactosidase [11]: 24.6 units of β-galactosidase

Molecule: B3
units of β-galactosidase [11]: 111 units of β-galactosidase

Continued, values first:

units of β-galactosidase (units of β-galactosidase) [1]: < 0.3
units of β-galactosidase (units of β-galactosidase) [2]: 301
units of β-galactosidase (units of β-galactosidase) [3]: < 0.3
units of β-galactosidase (units of β-galactosidase) [4]: < 0.3
Molecule: RAD51AP2-C321 (C-terminal 321 amino acids of human RAD51AP2) (from UniProt Q09MP3 839-1159) (domain or fragment)

units of β-galactosidase (units of β-galactosidase) [2]: 143
Molecule: RAD51AP2-C92 (last 92 amino acids of human RAD51AP2) (from UniProt Q09MP3 1068-1159) (domain or fragment)

percent of the interaction of RAD54-N142 with RAD51 [5]: > 70%
units of β-galactosidase (units of β-galactosidase) [6]: 395
units of β-galactosidase (units of β-galactosidase) [7]: 521
Molecule: human RAD51 (Gal4 two-hybrid fusion) (from UniProt Q06609 1-339) (natural protein)
